In data set [1] the target is T1, Human ALCAM (28–501)-6xhistidine tag (human, UniProt Q13740).
T1 construct: human ALCAM, residues 28-501, all five extracellular immunoglobulin domains; also called hALCAM; source: CHO cells, in-house, purified (Ni-NTA agarose)
As to the kind of experiment: ELISA; CD6 competition ELISA: plate coated with hALCAM (5 µg/mL in PBS); fixed murine CD6-Fc (0.25 µg/mL) with antibody 2000 nM to 0.002 nM in PBS, 2 h RT; bound CD6-Fc detected with HRP-coupled antihuman IgG. The note with it: both partners purified.

Another data set addresses T2, Rat ALCAM (Rattus norvegicus, UniProt O35112).
T2 construct: rat ALCAM, recombinant; source: bought: Sino Biological (80221-R08H-50)
As to the kind of experiment: ELISA; plate coated with human, mouse, rat or monkey ALCAM (5 µg/mL in PBS); scFv V2D7 1:3 dilutions from 1000 nM to 0.051 nM in PBS, 2 h RT; detected with HRP-coupled protein A. The note with it: both partners purified.

In a further data set the target is T3, Monkey ALCAM (Macaca fascicularis (cynomolgus monkey), UniProt G7NZQ8).
T3 construct: cynomolgus monkey ALCAM, recombinant; also called cynomolgus monkey ALCAM; source: bought: R&D systems (10027-AL-100)
Described as above. The note with it: both partners purified.

The target in the next data set is Murine ALCAM (Mus musculus, UniProt Q61490). As to the kind of experiment: cell-based or functional assay.
Data set [2] concerns the target T1, Human ALCAM (28–501)-6xhistidine tag. As to the kind of experiment: SPR; BiaCore3000; CM5 chip coated with hALCAM at 800 RU; flow 10 µL/min; single-cycle, sequential injection of scFv at 30, 60, 120 and 240 nM. The note with it: both partners purified.
For data set [3] the target is unchanged. As to the kind of experiment: ELISA; CD6 competition ELISA: plate coated with hALCAM (5 µg/mL in PBS); fixed murine CD6-Fc (0.25 µg/mL) with antibody 2000 nM to 0.002 nM in PBS, 2 h RT; bound CD6-Fc detected with HRP-coupled antihuman IgG. The note with it: both partners purified. The source holds these as a separate data set. In general terms: ELISA stands for enzyme-linked immunosorbent assay.

Data set [4] concerns the target T4, Human ALCAM (28–501)-6xhistidine tag (human, UniProt Q13740 28-501).
T4 construct: human ALCAM, residues 28-501, all five extracellular immunoglobulin domains; also called hALCAM; source: CHO cells, in-house, purified (Ni-NTA agarose)
T4 sequence (looked up): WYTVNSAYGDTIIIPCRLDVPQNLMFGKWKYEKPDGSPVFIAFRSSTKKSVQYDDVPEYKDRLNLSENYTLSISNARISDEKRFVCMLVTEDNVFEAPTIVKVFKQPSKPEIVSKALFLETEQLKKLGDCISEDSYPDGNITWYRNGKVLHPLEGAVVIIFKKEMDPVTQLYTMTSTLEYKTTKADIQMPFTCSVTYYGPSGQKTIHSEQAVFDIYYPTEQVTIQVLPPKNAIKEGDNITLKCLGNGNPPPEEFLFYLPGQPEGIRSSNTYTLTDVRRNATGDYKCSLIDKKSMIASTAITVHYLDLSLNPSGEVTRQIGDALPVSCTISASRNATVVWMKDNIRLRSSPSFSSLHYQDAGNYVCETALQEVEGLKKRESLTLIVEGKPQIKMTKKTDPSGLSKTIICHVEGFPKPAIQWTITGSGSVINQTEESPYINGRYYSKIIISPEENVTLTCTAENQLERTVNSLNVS
The data set is described as above. The following applies: both partners purified.

Chain of Murine ALCAM (Q61490 28-527): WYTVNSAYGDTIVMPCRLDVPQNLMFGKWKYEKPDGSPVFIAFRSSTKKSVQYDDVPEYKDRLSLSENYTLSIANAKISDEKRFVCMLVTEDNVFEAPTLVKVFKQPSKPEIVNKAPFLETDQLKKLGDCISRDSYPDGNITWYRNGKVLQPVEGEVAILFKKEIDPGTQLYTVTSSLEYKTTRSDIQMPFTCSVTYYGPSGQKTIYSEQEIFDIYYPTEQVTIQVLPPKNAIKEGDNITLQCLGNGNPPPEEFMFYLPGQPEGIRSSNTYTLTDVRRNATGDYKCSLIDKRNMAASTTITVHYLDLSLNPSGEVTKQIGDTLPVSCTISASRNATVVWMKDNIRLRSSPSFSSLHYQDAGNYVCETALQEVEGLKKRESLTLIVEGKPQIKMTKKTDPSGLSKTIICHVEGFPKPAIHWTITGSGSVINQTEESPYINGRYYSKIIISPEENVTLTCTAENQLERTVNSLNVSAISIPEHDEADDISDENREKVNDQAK
T2 sequence (O35112 28-527): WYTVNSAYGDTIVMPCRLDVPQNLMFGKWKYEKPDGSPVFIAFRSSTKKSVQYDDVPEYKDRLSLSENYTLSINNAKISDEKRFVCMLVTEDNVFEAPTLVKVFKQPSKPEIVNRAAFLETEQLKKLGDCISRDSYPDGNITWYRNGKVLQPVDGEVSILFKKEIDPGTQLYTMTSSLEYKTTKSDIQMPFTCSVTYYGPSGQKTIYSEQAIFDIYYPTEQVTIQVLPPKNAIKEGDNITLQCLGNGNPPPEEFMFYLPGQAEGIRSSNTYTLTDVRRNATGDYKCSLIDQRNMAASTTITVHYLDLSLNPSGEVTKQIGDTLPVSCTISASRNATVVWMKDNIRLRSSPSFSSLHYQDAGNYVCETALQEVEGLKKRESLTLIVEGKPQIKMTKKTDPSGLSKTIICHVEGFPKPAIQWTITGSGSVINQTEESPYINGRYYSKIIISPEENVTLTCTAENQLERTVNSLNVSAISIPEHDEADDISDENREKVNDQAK

B1: scFv V2D7 (scFv, V domains shown)
VH: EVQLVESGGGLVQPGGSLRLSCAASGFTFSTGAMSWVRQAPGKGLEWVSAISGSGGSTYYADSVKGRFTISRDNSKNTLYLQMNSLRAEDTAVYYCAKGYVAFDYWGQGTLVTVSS
VL: SSVLTQPPSVSVAPGQTARITCQGDSLRSGYASWYQQKPGQAPVLVVYGKNNRPSGIPERFSGSSSGNTATLTISRVEAGDEADYYCNSSPPFSAEVVFGGGTKLTVL
notes: VH of V2D7: as the VH of OPT with changed CDR1; linker; VL of V2D7: as the VL of OPT with changed CDR1; CDR1 QGDSLRSGYAS, CDR2 GKNNRPS, CDR3 NSSPPFSAEVV; also called V2D7 scFv; source: CHO cells, transient gene expression, purified (Protein A)
The term IC50 denotes the point on the concentration scale where inhibition reaches its midpoint. On to B1, for which the IC50 in data set [1] came to 20.7 ± 11.8 nM. In addition, the binding result in the data set with Rat ALCAM and with Monkey ALCAM was “binds” each time. In the data set with Murine ALCAM, the “IC50 of DC transmigration across LEC monolayers (DC TM; blocks ALCAM–ALCAM between DCs and LECs)” value was over 100 nM.

B2: scFv V20C10NC (scFv, V domains shown)
VH: EVQLVESGGGLVQPGGSLRLSCAASGFTFSTGAMSWVRQAPGKGLEWVSAISGTGGTTYYADSVKGRFTISRDNSKNTLYLQMNSLRAEDTAVYYCAKGYVAFDYWGQGTLVTVSS
VL: SSVLTQPPSVSVAPGQTARITCQGDSLRSGYASWYQQKPGQAPVLVVYPKMSRPSGIPERFSGSSSGNTATLTISRVEAGDEADYYCNSSPPFSAEVVFGGGTKLTVL
notes: VH of V20C10NC: as the VH of OPT with changed CDR1 and CDR2; linker; VL of V20C10NC: as the VL of OPT with changed CDR1 and CDR2; CDR1 QGDSLRSGYAS, CDR2 PKMSRPS, CDR3 NSSPPFSAEVV; Histidines in the CDR2 loops of clone V20C10 were mutated to threonine (VH) and serine (VL), giving V20C10NC; source: CHO cells, transient gene expression, purified (Protein A)
On to B2, for which, in data set [2], the binding result was “binds”.

B3: scFv V200G1 (scFv, V domains shown)
VH: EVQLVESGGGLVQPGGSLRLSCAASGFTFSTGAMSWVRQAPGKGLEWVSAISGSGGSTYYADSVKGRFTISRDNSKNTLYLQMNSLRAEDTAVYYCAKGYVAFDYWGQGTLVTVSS
VL: SSVLTQPPSVSVAPGQTARITCQGDSLRSGYASWYQQKPGQAPVLVVYGKTGRPSGIPERFSGSSSGNTATLTISRVEAGDEADYYCNSSPPFSAEVVFGGGTKLTVL
notes: VH of V200G1: as the VH of V2D7, i.e. the VH of OPT with changed CDR1; linker; VL of V200G1: as the VL of OPT with changed CDR1 and CDR2; CDR1 QGDSLRSGYAS, CDR2 GKTGRPS, CDR3 NSSPPFSAEVV; source: CHO cells, transient gene expression, purified (Protein A)
As for B3, in data set [2], the binding result is on record as “binds”.

B4: scFv OPT (scFv, V domains shown)
VH: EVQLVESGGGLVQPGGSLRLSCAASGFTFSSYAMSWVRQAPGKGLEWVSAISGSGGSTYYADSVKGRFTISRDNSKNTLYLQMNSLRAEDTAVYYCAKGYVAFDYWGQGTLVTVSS
VL: SSVLTQPPSVSVAPGQTARITCQGDSLRSYYASWYQQKPGQAPVLVVYGKNNRPSGIPERFSGSSSGNTATLTISRVEAGDEADYYCNSSPPFSAEVVFGGGTKLTVL
notes: linker; CDR1 QGDSLRSYYAS, CDR2 GKNNRPS, CDR3 NSSPPFSAEVV; Only CDRs and linker are printed; also called framework-optimized scFv OPT; source: CHO cells, transient gene expression, purified (Protein A)
B4: the “fold improvement of Kd against scFv IF8” value in data set [2] amounted to 2 fold.

B5: db V20C10NC (other)
VH: EVQLVESGGGLVQPGGSLRLSCAASGFTFSTGAMSWVRQAPGKGLEWVSAISGTGGTTYYADSVKGRFTISRDNSKNTLYLQMNSLRAEDTAVYYCAKGYVAFDYWGQGTLVTVSS
VL: SSVLTQPPSVSVAPGQTARITCQGDSLRSGYASWYQQKPGQAPVLVVYPKMSRPSGIPERFSGSSSGNTATLTISRVEAGDEADYYCNSSPPFSAEVVFGGGTKLTVL
notes: linker; Bivalent two-chain diabody; also called V20C10NC in db format; source: CHO cells, transient gene expression, purified (Protein A)
As for B5, the binding result in data set [3] is on record as “binds”.

B6: scFv IF8 (scFv, V domains shown)
VH: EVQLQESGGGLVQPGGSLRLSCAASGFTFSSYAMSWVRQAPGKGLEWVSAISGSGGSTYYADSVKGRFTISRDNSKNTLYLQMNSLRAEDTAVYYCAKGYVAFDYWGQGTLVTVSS
VL: SSELTQDPAVSVALGQTVRITCQGDSLRSYYASWYQQKPGQAPVLVIYGKNNRPSGIPDRFSGSSSGNTASLTITGAQAEDEADYYCNSSPPFSAEVVFGGGTKLTVL
notes: VH of IF8 (heavy chain DP47, ETH-2 library); VL of IF8 (light chain DPL16, ETH-2 library); CDR1 QGDSLRSYYAS, CDR2 GKNNRPS, CDR3 NSSPPFSAEVV; Only CDRs and linker are printed; also called IF8 scFv; parental scFv IF8; source: CHO cells, transient gene expression, purified (Protein A)
As usually defined, the Kd is the equilibrium constant for the complex coming apart. As for B6, the dissociation constant (Kd) in data set [2] came out at 24.1 nM. Moreover, the IC50 in data set [3] worked out at 63.6 nM.

B7: Murine CD6-Fc (Fc fusion, mouse, UniProt Q61003 17-398, looked up)
chain: GLPSPAPSGQHKNGTIPNMTLDLEERLGIRLVNGSSRCSGSVKVLLESWEPVCAAHWNRAATEAVCKALNCGDSGKVTYLMPPTSELPPGATSGNTSSAGNTTWARAPTERCRGANWQFCKVQDQECSSDRRLVWVTCAENQAVRLVDGSSRCAGRVEMLEHGEWGTVCDDTWDLQDAHVVCKQLKCGWAVKALAGLHFTPGQGPIHRDQVNCSGTEAYLWDCPGRPGDQYCGHKEDAGVVCSEHQSWRLTGGIDSCEGQVEVYFRGVWSTVCDSEWYPSEAKVLCRSLGCGSAVARPRGLPHSLDGRMYYSCKGQEPALSTCSWRFNNSNLCSQSRAARVVCSGSQRHLNLSTSEVPSRVPVTIESSVPVSVKDKDSQGLT
notes: mouse CD6, recombinant Fc fusion; source: bought: R&D Systems (727-CD)
B7: the binding result in data set [4] was “binds”.

For the origin of these results see article PMC10385607, “Optimization and Characterization of Novel ALCAM-Targeting Antibody Fragments for Transepithelial Delivery” (Pharmaceutics, 2023).
